From FireProtDB (doi:10.1021/bi962939w)

B1: Interleukin-6, P08505 (parent)
chain: MKFLSARDFHPVAFLGLMLVTTTAFPTSQVRRGDFTEDTTPNRPVYTTSQVGGLITHVLWEIVEMRKELCNGNSDCMNNDDALAENNLKLPEIQRNDGCYQTGYNQEICLLKISSGLLEYHSYLEYMKNNLKDNKKDKARVLQRDTETLIHIFNQEVKDLHKIVLPTPISNALLTDKLESQKEWLRTKTIQFILKSLEEFLKVTLRSTRQT

Variants of: B1
Settings: Mus musculus, 25 °C, CD, structure 2L3Y, whole UniProt chain shown
[1] = pH 4, Urea, Sodium acetate 10 mM

Variant	ddG of mutation (higher = less stable) [1]	denaturant m value [1]	denaturant midpoint (higher = more stable) [1]	unfolding free energy [1]	ddG of mutation (higher = less stable) (pH 7.4, GdnHCl, Tris-HCl 10 mM)	denaturant m value (pH 7.4, GdnHCl, Tris-HCl 10 mM)	denaturant midpoint (higher = more stable) (pH 7.4, GdnHCl, Tris-HCl 10 mM)	unfolding free energy (pH 7.4, GdnHCl, Tris-HCl 10 mM)	ddG of mutation (higher = less stable) (pH 7.4, Urea, Tris-HCl 10 mM)	denaturant m value (pH 7.4, Urea, Tris-HCl 10 mM)	denaturant midpoint (higher = more stable) (pH 7.4, Urea, Tris-HCl 10 mM)	unfolding free energy (pH 7.4, Urea, Tris-HCl 10 mM)
MKFLSARDFHPVAFLGLMLVTTTAFPTSQVRRGDFTEDTTPNRPVYTTSQVGGLITAVLAEIVEMRKELCNGNSDCMNNDDALAENNLKLPEIQRNDGCYQTGYNQEICLLKISSGLLEYHSYLEYMKNNLKDNKKDKARVLQRDTETLIHIFNQEVKDLHKIVLPTPISNALLTDKLESQKEWLRTKTIQFILKSLEEFLKVTLRSTRQT [H57A W60A]	2.2 kcal/mol	2.3 kcal/mol/M	3.8 M	8.6 kcal/mol	-4.1 kcal/mol	3 kcal/mol/M	2 M	6 kcal/mol	-1.8 kcal/mol	1.5 kcal/mol/M	4.9 M	7.5 kcal/mol
MKFLSARDFHPVAFLGLMLVTTTAFPTSQVRRGDFTEDTTPNRPVYTTSQVGGLITAVLWEIVEMRKELCNGNSDCMNNDDALAENNLKLPEIQRNDGCYQTGYNQEICLLKISSGLLEYHSYLEYMKNNLKDNKKDKARVLQRDTETLIHIFNQEVKDLHKIVLPTPISNALLTDKLESQKEWLRTKTIQFILKSLEEFLKVTLRSTRQT [H57A]	3.9 kcal/mol	1.9 kcal/mol/M	3.58 M	6.9 kcal/mol	0.3 kcal/mol	0.8 kcal/mol/M	2 M	1.6 kcal/mol	–	–	–	–
MKFLSARDFHPVAFLGLMLVTTTAFPTSQVRRGDFTEDTTPNRPVYTTSQVGGLITHVLAEIVEMRKELCNGNSDCMNNDDALAENNLKLPEIQRNDGCYQTGYNQEICLLKISSGLLEYHSYLEYMKNNLKDNKKDKARVLQRDTETLIHIFNQEVKDLHKIVLPTPISNALLTDKLESQKEWLRTKTIQFILKSLEEFLKVTLRSTRQT [W60A]	2 kcal/mol	2.5 kcal/mol/M	3.5 M	8.8 kcal/mol	-3.1 kcal/mol	2.5 kcal/mol/M	4.6 M	5 kcal/mol	1.7 kcal/mol	1 kcal/mol/M	4.6 M	4 kcal/mol
